Paper PMC7338535 (Scientific Reports, 2020)

Molecular target: the molecule itself
Experiment: crystal structure; apo DiB3, crystals grown at 21 °C in 0.8 M sodium citrate, 50 mM sodium borate, 0.1 sodium acetate, pH 3.5; one chain in the asymmetric unit, dimer with a crystallographic symmetry mate

B1: DiB3 (natural protein)
chain: LESTSLYKKSSSTPPRGVTVVNNFDAKRYLGTWYEIARFDHRFERGLEKVTATYSLRDDGGLNFINKGYNPDRGMWQQSEGKAYFTGAPTRAALKVSFFGPFYGGYNVIALDREYRHALVCGPDRDYLWIQSRTPTISDEVKQEMLAVATREGFDVSKFIWVQQPGS
  stoichiometry N: 2
